Data reported in US20210017278A1 (PROTHENA BIOSCIENCES, published 2021).

What was measured:
Assay in all cases: ELISA, peptide coated on plate, HRP secondary, A490
[1] = biological target: T1, peptide AEDS (SEQ ID NO: 20)
T1 construct: Coated on ELISA plates; also called X1EDX2 peptide
T1 peptide: AEDS
Source text: (§1) ELISA plates were coated with indicated peptides, blocked, and assayed with either NEOD001 or 2A4, as indicated. After washing, appropriate horseradish peroxidase-conjugated secondary antibodies were applied. The plate was then washed and developed with o-phenylenediamene, and absorbance was read at 490 nm.
(§2) ELISA plates were coated with peptides having the amino acid sequence HEDT (SEQ ID NO: 19), AEDS (SEQ ID NO: 20), or HGDT (SEQ ID NO: 21), blocked, and assayed with either NEOD001 (an antibody with a light chain having the amino sequence set forth as SEQ ID NO: 13 and a heavy chain having the amino acid sequence set forth as SEQ ID NO: 14) or 2A4 (ATCC Accession Number 9662), as indicated. After washing, appropriate horseradish peroxidase-conjugated secondary antibodies were applied. The plate was then washed and developed with o-phenylenediamene, and absorbance was read at 490 nm.

[2] = biological target: T2, peptide HEDT (SEQ ID NO: 19)
T2 construct: Coated on ELISA plates; also called X1EDX2 peptide
T2 peptide: HEDT
Source text: as §1, §2

[3] = biological target: T3, peptide HGDT (SEQ ID NO: 21)
T3 construct: Coated on ELISA plates; also called X1GDX2 peptide
T3 peptide: HGDT
Source text: as §1, §2

Measured: binding result

B1: NEOD001 (antibody, human IgG1, kappa, V domains shown)
VH: EVQLVESGGGLVQPGGSLRLSCAASGFTFNTYAMYWIRQAPGKGLEWVARIRSKSNNYAIYYADSVKDRFTISRDDSKNSLYLQMNSLKTEDTAVYYCARPYSDSFAYWGQGTLVTVSS
VL: DVVMTQSPLSLPVTPGEPASISCRSSQSLVHSTGNTYLHWYLQKPGQSPQLLIYKVSNRFSGVPDRFSGSGSGTDFTLKISRVEAEDVGVYYCSQSTHVPFTFGGGTKVEIKR
notes: It shares the CDRs of murine antibody 2A4; also called humanized version of antibody 2A4
binds: all assays above
